According to patent US20090202499A1 (University of California, published 2009):
Values belong to the binder of their own block, whether it stands above or below them.

What was measured:
[1] = biological target: T1, purified HLA-B*5401 (human); assay: competition radioimmunoassay on purified HLA, radiolabeled standard peptide
T1 construct: Purified MHC class I molecule incubated with human b2m; also called B*54011
Source text: (§1) Supertype analysis. […] Under the conditions utilized, where [label]<[MHC] and IC₅₀≧[MHC], the measured IC₅₀ values are reasonable approximations of the true Kd values.

[2] = biological target: T2, purified HLA-B*5301 (human); assay: as above
T2 construct: Purified MHC class I molecule incubated with human b2m
Source text: as §1

[3] = biological target: T3, purified HLA-B*0801 (human); assay: as above
T3 construct: Purified MHC class I molecule incubated with human b2m; not officially part of the HLA-B7 supertype
Source text: as §1

[4] = biological target: T4, purified HLA-B*0702 (human); assay: as above
T4 construct: Purified MHC class I molecule incubated with human b2m; complexes captured with W6/32 antibody; also called HLA-B7; immobilized purified HLA-B7 molecule
Source text: as §1

[5] = biological target: T4, purified HLA-B*0702; assay: competition solid-phase radioimmunoassay on purified HLA-B7, radiolabeled standard peptide
Source text: Next, we assessed the actual binding avidity for HLA-B7 (HLA-B*0702). Two independent assays were used: binding stabilization assay on T2-B7 cells by flow cytometry (12) and a competitive solid-phase radioimmunoassay on immobilized purified HLA-B7 molecule (35).

[6] = biological target: T5, purified HLA-B*3501 (human); assay: competition radioimmunoassay on purified HLA, radiolabeled standard peptide
T5 construct: Purified MHC class I molecule incubated with human b2m
Source text: as §1

[7] = biological target: T6, purified HLA-B*5101 (human); assay: as above
T6 construct: Purified MHC class I molecule incubated with human b2m
Source text: as §1

B1: hTRT peptide p342 (RPSFLLSSL) (peptide)
peptide: RPSFLLSSL
notes: Synthetic 9mer peptide of human telomerase reverse transcriptase
IC50 [1]: 12600 nM

B2: hTRT peptide p444 (DPRRLVQLL) (peptide)
peptide: DPRRLVQLL
notes: as for B1
IC50 [1]: 21900 nM

B6: hTRT peptide p464 (FVRACLRRL) (peptide)
peptide: FVRACLRRL
notes: as for B1
IC50 [1]: 18800 nM
IC50 [3]: 123 nM
IC50 [4]: 4.1 nM
IC50 [5]: 4.1 nM

More lines, now with the values ahead:

IC50 [1]: 34100 nM
B3: hTRT peptide p966 (AGRNMRRKL) (peptide)
peptide: AGRNMRRKL
notes: as for B1

IC50 [2]: 120 nM
IC50 [3]: 192 nM
IC50 [4]: 0.96 nM
IC50 [5]: 0.96 nM
B4: hTRT peptide p1107 (LPGTTLTAL) (peptide)
peptide: LPGTTLTAL
notes: as for B1

IC50 [6]: 5 nM
IC50 [7]: 1620 nM
IC50 [2]: 2.4 nM
IC50 [1]: 19900 nM
IC50 [3]: 74 nM
IC50 [4]: 11 nM
IC50 [5]: 11 nM
B5: hTRT peptide p1123 (LPSDFKTIL) (peptide)
peptide: LPSDFKTIL
notes: as for B1
